# Experimental data taken from patent US20240100176A1 (Eli Lilly, published 2024).
# T1: human IL-4Rα on cells (human PBMC B cells and CD4+ T cells, Daudi cells, HEK-Blue IL-4/IL-13 cells, myeloid … (human, UniProt P24394 26-825))
# T1 sequence: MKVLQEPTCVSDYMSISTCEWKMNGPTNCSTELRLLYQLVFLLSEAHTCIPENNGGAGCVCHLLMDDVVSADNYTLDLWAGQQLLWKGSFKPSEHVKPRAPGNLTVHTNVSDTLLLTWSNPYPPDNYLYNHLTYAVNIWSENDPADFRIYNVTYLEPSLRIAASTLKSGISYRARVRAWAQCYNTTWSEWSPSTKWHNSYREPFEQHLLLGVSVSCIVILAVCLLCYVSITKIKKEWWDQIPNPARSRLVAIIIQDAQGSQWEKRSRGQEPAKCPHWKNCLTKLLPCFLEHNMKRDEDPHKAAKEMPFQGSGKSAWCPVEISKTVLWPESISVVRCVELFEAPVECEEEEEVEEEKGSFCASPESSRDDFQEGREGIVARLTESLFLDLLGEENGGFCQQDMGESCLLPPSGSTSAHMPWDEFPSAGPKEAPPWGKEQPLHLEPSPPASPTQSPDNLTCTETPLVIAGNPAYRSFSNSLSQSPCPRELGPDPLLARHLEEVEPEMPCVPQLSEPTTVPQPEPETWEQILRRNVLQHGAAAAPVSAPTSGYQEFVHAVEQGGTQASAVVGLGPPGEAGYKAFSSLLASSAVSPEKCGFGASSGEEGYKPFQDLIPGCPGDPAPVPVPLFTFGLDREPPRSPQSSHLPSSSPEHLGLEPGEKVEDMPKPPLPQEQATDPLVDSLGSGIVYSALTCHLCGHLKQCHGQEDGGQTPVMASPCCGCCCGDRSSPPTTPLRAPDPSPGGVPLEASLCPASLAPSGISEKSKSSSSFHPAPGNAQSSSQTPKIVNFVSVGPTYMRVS
# T2: hexahistidine-tagged human IL-4Rα extracellular domain (human, UniProt P24394 26-232)
# T2 construct: In the MSD assay the plate coat is the His-tagged ECD; also called human IL-4Rα ECD; Wild type receptor; not shown: hexahistidine tag
# T2 sequence: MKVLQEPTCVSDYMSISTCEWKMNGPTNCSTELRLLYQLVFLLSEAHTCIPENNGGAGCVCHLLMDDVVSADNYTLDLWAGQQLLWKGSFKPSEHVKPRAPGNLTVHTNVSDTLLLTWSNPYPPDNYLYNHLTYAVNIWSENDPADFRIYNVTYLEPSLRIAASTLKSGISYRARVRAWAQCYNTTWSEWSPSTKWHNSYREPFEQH
# What was measured:
# [1] = molecular target: T1, human IL-4Rα on cells (human PBMC B …); test: cell-based or functional assay
# [2] = molecular target: T1, human IL-4Rα on cells (human PBMC B …); test: cell-based or functional assay; remark: listed apart in the source
# [3] = molecular target: T1, human IL-4Rα on cells (human PBMC B …); test: cell-based or functional assay; remark: listed apart in the source
# [4] = molecular target: T2, hexahistidine-tagged human IL-4Rα …; test: competition MSD ELISA (solution equilibrium, 37 °C), apparent KD, mean of 3 experiments
# Description: Example 3a. […] A 96-well multi-array plate (Meso Scale Diagnostics, Cat. #L15XA-3) was coated at 4° C. overnight with 0.5 μg/mL hexahistidine-tagged human or cynomolgus monkey IL-4Rα ECD in phosphate buffered saline (PBS). Following coating, plates were washed 10 times with 200 μL PBST (PBS with 0.05% Tween® 20) and blocked with 300 μL/well of PBS casein blocking buffer (Pierce, Cat. #37528) at 37° C. for 1 hour. Plates were then washed 10 times as above, and 50 μL of the preincubated antibody:IL-4Rα dilution series was transferred to the wells and incubated at 37° C. with 300 rpm shaking for […]. Plates were washed 10 times with PBST, 50 μL of 1 μg/mL anti-human antibody sulfo-tag 20 (Meso Scale Diagnostics, Cat. #R32AJ-1) was added to the plates for the assay of Table 7a, and anti-Human NHP Kappa Light chain SULFO-TAG 20 (Meso Scale Diagnostics, Cat #D20TF-6) was added to the plates for the assay of Table 7b, and plates were incubated at 37° C. with 300 rpm shaking for 30 minutes. Plates were washed 10 times with PBST, 150 μL/well of 1× Read Buffer T was added to the wells and analyzed on a SECTOR® Imager 6000 (Meso Scale Diagnostics) 15 min after buffer addition. The apparent KD is determined by fitting a sigmoidal curve to the electrochemiluminescence (ECL) response vs. log (soluble IL-4Rα concentration) using GraphPad Prism 9. Data is graphed with normalized ECL values.
"Inhibition of IL-4 induced STAT6 phosphorylation, B cells, IC50 [1]","Inhibition of IL-4 induced STAT6 phosphorylation, CD4+ T cells, IC50 [1]","Inhibition of IL-13 induced STAT6 phosphorylation in B cells, IC50 [2]","Inhibition of IL-4 induced CD23 Expression on myeloid cells, IC50 [3]",Kd [4],Binder
0.019 µg/mL,0.017 µg/mL,0.03 µg/mL,8.27 nM,0.0312 nM,"anti-human IL-4Rα antibody Ab1 (antibody, human IgG4 S228P, kappa, human kappa light chain; also called anti-human IL-4Rα Ab1; unconjugated Ab1) heavy: QVQLVESGGGLVQPGGSLRLSCVASGFTFSHSSMNWVRQAPGKGLEWVSYISRATGAVYYADSVKGRFTISRDNAKNSLYLQMNSLRDEDTAVYYCAREPVFDYWGQGTLVTVSSASTKGPCVFPLAPCSRSTSESTAALGCLVKDYFPEPVTVSWNSGALTSGVHTFPAVLQSSGLYSLSSVVTVPSSSLGTKTYTCNVDHKPSNTKVDKRVESKYGPPCPPCPAPEFLGGPSVFLFPPKPKDTLMISRTPEVTCVVVDVSQEDPEVKFNWYVDGVEVHNAKTKPREEQFNSTYRVVSVLTVLHQDWLNGKEYKCKVSNKGLPSSIEKTISKAKGQPREPQVYTLPPSREEMTKNQVSLTCLVKGFYPSDICVEWESNGQPENNYKTTPPVLDSDGSFFLYSRLTVDKSRWQQGNVFSCSVMHEALHNHYTQKSLSLSLG light: DIQMTQSPSAMSASVGDRVTITCRASQDISNYLAWFQQKPGKVPTRLIYAASSLQSGVPSRFSGSGSGTEFTLTISSLQPEDFATYYCLQWSSYPRTFGQGTKVEIKRTVAAPSVFIFPPSDEQLKSGTASVVCLLNNFYPREAKVQWKVDNALQSGNSQESVTEQDSKDSTYSLSSTLTLSKADYEKHKVYACEVTHQGLSSPVTKSFNRGEC"
0.046 µg/mL,0.041 µg/mL,0.064 µg/mL,10.8 nM,0.0247 nM,"anti-human IL-4Rα Ab1 GC conjugate of Example 1b (n=4) (antibody, human IgG4 S228P, kappa, glucocorticoid receptor agonist payload-linker (GC-L, Preparation 8) conjugated to the engineered cysteines at the 124 and 378 position of the heavy chain (EU numbering); n is 4 (average DAR 4.17 by RP-HPLC, 3.85 by TOF MS)) heavy: QVQLVESGGGLVQPGGSLRLSCVASGFTFSHSSMNWVRQAPGKGLEWVSYISRATGAVYYADSVKGRFTISRDNAKNSLYLQMNSLRDEDTAVYYCAREPVFDYWGQGTLVTVSSASTKGPCVFPLAPCSRSTSESTAALGCLVKDYFPEPVTVSWNSGALTSGVHTFPAVLQSSGLYSLSSVVTVPSSSLGTKTYTCNVDHKPSNTKVDKRVESKYGPPCPPCPAPEFLGGPSVFLFPPKPKDTLMISRTPEVTCVVVDVSQEDPEVKFNWYVDGVEVHNAKTKPREEQFNSTYRVVSVLTVLHQDWLNGKEYKCKVSNKGLPSSIEKTISKAKGQPREPQVYTLPPSREEMTKNQVSLTCLVKGFYPSDICVEWESNGQPENNYKTTPPVLDSDGSFFLYSRLTVDKSRWQQGNVFSCSVMHEALHNHYTQKSLSLSLG light: DIQMTQSPSAMSASVGDRVTITCRASQDISNYLAWFQQKPGKVPTRLIYAASSLQSGVPSRFSGSGSGTEFTLTISSLQPEDFATYYCLQWSSYPRTFGQGTKVEIKRTVAAPSVFIFPPSDEQLKSGTASVVCLLNNFYPREAKVQWKVDNALQSGNSQESVTEQDSKDSTYSLSSTLTLSKADYEKHKVYACEVTHQGLSSPVTKSFNRGEC"
